Data as given in publication PMC13391367 (Nature, 2025).
The star is where a group is joined. Biotin = O=C1N[C@H]2[C@H](CS[C@H]2CCCCC(=O)*)N1; fluorescein = fluorescein label

Biological target: T1, LENG8(283–346) (human, UniProt Q96PV6 283-346)
T1 construct: LENG8, human, residues 283–346 (conserved helical region N-terminal to the SAC3 domain); also called LENG8^283–346 WT; source: recombinant
T1 sequence (looked up): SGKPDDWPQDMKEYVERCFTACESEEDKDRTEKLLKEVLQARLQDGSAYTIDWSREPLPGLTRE
Assay: pull-down; biotinylated, fluorescein-labelled ZFC3H1 peptide (200 µg) on magnetic streptavidin beads; 15 μg LENG8(283–346) or its F301A mutant added, 60 min at 4 °C; 25 mM HEPES pH 7.9, 100 mM NaCl, 5% glycerol, 1 mM MgCl2, 1 mM TCEP, 0.01% Igepal CA-630; glycine pH 2.5 elution; Coomassie and fluorescein imaging
Conditions: both partners purified

B1: Biotin-ZFC3H1^728–752 wild-type peptide, C-terminal fluorescein (peptide, UniProt O60293 728-752, looked up)
peptide: Biotin-NSVFGGLESMIKEARRTAEQASKPK-fluorescein
notes: ZFC3H1, human, residues 728–752; also called ZFC3H1 peptide WT
- binding result: binds
